# Measurements published in paper PMC7817217.
# Target: bACE2-Rm fused with eGFP, expressed on the surface of HEK293T cells (Rhinolophus macrotis)
# Experiment: flow cytometry on cells
substance,measurement,value
SARS-CoV-2 spike protein receptor binding domain (RBD) (from UniProt P0DTC2 319-541) (domain or fragment),percent of cells stained positive,34.5%
